Data as given in paper PMC13534707, “Vps1 drives membrane constriction and fission necessary for endosomal protein sorting” (The EMBO Journal, 2026).

B1: Vacuolar protein sorting-associated protein 1 (Vps1), wild type, recombinant (enzyme, S. cerevisiae, UniProt P21576 1-704, looked up)
chain: MDEHLISTINKLQDALAPLGGGSQSPIDLPQITVVGSQSSGKSSVLENIVGRDFLPRGTGIVTRRPLVLQLINRRPKKSEHAKVNQTANELIDLNINDDDKKKDESGKHQNEGQSEDNKEEWGEFLHLPGKKFYNFDEIRKEIVKETDKVTGANSGISSVPINLRIYSPHVLTLTLVDLPGLTKVPVGDQPPDIERQIKDMLLKYISKPNAIILSVNAANTDLANSDGLKLAREVDPEGTRTIGVLTKVDLMDQGTDVIDILAGRVIPLRYGYIPVINRGQKDIEHKKTIREALENERKFFENHPSYSSKAHYCGTPYLAKKLNSILLHHIRQTLPEIKAKIEATLKKYQNELINLGPETMDSASSVVLSMITDFSNEYAGILDGEAKELSSQELSGGARISYVFHETFKNGVDSLDPFDQIKDSDIRTIMYNSSGSAPSLFVGTEAFEVLVKQQIRRFEEPSLRLVTLVFDELVRMLKQIISQPKYSRYPALREAISNQFIQFLKDATIPTNEFVVDIIKAEQTYINTAHPDLLKGSQAMVMVEEKLHPRQVAVDPKTGKPLPTQPSSSKAPVMEEKSGFFGGFFSTKNKKKLAALESPPPVLKATGQMTERETMETEVIKLLISSYFSIVKRTIADIIPKALMLKLIVKSKTDIQKVLLEKLYGKQDIEELTKENDITIQRRKECKKMVEILRNASQIVSSV
notes: Vps1, S. cerevisiae; the Vps1 gene amplified from genomic DNA and cloned into pET15b; A TEV site follows the N-terminal 6xHis tag; also called WT; wild-type Vps1; source: bacterially expressed, T7 Express (NEB), purified (Strep-trap HP or Streptactin XT)
B2: Vps1(G436D) (enzyme, S. cerevisiae, UniProt P21576 1-704, looked up)
chain: MDEHLISTINKLQDALAPLGGGSQSPIDLPQITVVGSQSSGKSSVLENIVGRDFLPRGTGIVTRRPLVLQLINRRPKKSEHAKVNQTANELIDLNINDDDKKKDESGKHQNEGQSEDNKEEWGEFLHLPGKKFYNFDEIRKEIVKETDKVTGANSGISSVPINLRIYSPHVLTLTLVDLPGLTKVPVGDQPPDIERQIKDMLLKYISKPNAIILSVNAANTDLANSDGLKLAREVDPEGTRTIGVLTKVDLMDQGTDVIDILAGRVIPLRYGYIPVINRGQKDIEHKKTIREALENERKFFENHPSYSSKAHYCGTPYLAKKLNSILLHHIRQTLPEIKAKIEATLKKYQNELINLGPETMDSASSVVLSMITDFSNEYAGILDGEAKELSSQELSGGARISYVFHETFKNGVDSLDPFDQIKDSDIRTIMYNSSDSAPSLFVGTEAFEVLVKQQIRRFEEPSLRLVTLVFDELVRMLKQIISQPKYSRYPALREAISNQFIQFLKDATIPTNEFVVDIIKAEQTYINTAHPDLLKGSQAMVMVEEKLHPRQVAVDPKTGKPLPTQPSSSKAPVMEEKSGFFGGFFSTKNKKKLAALESPPPVLKATGQMTERETMETEVIKLLISSYFSIVKRTIADIIPKALMLKLIVKSKTDIQKVLLEKLYGKQDIEELTKENDITIQRRKECKKMVEILRNASQIVSSV
notes: Vps1, S. cerevisiae, with G436D made by site-directed mutagenesis of the pET15b construct; Same tags as m1; source: bacterially expressed, T7 Express (NEB), purified (Strep-trap HP or Streptactin XT)
B3: Vps1(Δ4F) (enzyme, S. cerevisiae, UniProt P21576 1-704, looked up)
chain: MDEHLISTINKLQDALAPLGGGSQSPIDLPQITVVGSQSSGKSSVLENIVGRDFLPRGTGIVTRRPLVLQLINRRPKKSEHAKVNQTANELIDLNINDDDKKKDESGKHQNEGQSEDNKEEWGEFLHLPGKKFYNFDEIRKEIVKETDKVTGANSGISSVPINLRIYSPHVLTLTLVDLPGLTKVPVGDQPPDIERQIKDMLLKYISKPNAIILSVNAANTDLANSDGLKLAREVDPEGTRTIGVLTKVDLMDQGTDVIDILAGRVIPLRYGYIPVINRGQKDIEHKKTIREALENERKFFENHPSYSSKAHYCGTPYLAKKLNSILLHHIRQTLPEIKAKIEATLKKYQNELINLGPETMDSASSVVLSMITDFSNEYAGILDGEAKELSSQELSGGARISYVFHETFKNGVDSLDPFDQIKDSDIRTIMYNSSGSAPSLFVGTEAFEVLVKQQIRRFEEPSLRLVTLVFDELVRMLKQIISQPKYSRYPALREAISNQFIQFLKDATIPTNEFVVDIIKAEQTYINTAHPDLLKGSQAMVMVEEKLHPRQVAVDPKTGKPLPTQPSSSKAPVMEEKTKNKKKLAALESPPPVLKATGQMTERETMETEVIKLLISSYFSIVKRTIADIIPKALMLKLIVKSKTDIQKVLLEKLYGKQDIEELTKENDITIQRRKECKKMVEILRNASQIVSSV
notes: Vps1, S. cerevisiae, lacking the phenylalanine-rich 4F motif (residues 579-587) of Insert B; Same tags as m1; source: bacterially expressed, T7 Express (NEB), purified (Strep-trap HP or Streptactin XT)
B4: Vps1(Δ3K) (enzyme, S. cerevisiae, UniProt P21576 1-704, looked up)
chain: MDEHLISTINKLQDALAPLGGGSQSPIDLPQITVVGSQSSGKSSVLENIVGRDFLPRGTGIVTRRPLVLQLINRRPKKSEHAKVNQTANELIDLNINDDDKKKDESGKHQNEGQSEDNKEEWGEFLHLPGKKFYNFDEIRKEIVKETDKVTGANSGISSVPINLRIYSPHVLTLTLVDLPGLTKVPVGDQPPDIERQIKDMLLKYISKPNAIILSVNAANTDLANSDGLKLAREVDPEGTRTIGVLTKVDLMDQGTDVIDILAGRVIPLRYGYIPVINRGQKDIEHKKTIREALENERKFFENHPSYSSKAHYCGTPYLAKKLNSILLHHIRQTLPEIKAKIEATLKKYQNELINLGPETMDSASSVVLSMITDFSNEYAGILDGEAKELSSQELSGGARISYVFHETFKNGVDSLDPFDQIKDSDIRTIMYNSSGSAPSLFVGTEAFEVLVKQQIRRFEEPSLRLVTLVFDELVRMLKQIISQPKYSRYPALREAISNQFIQFLKDATIPTNEFVVDIIKAEQTYINTAHPDLLKGSQAMVMVEEKLHPRQVAVDPKTGKPLPTQPSSSKAPVMEEKSGFFGGFFSTKNLAALESPPPVLKATGQMTERETMETEVIKLLISSYFSIVKRTIADIIPKALMLKLIVKSKTDIQKVLLEKLYGKQDIEELTKENDITIQRRKECKKMVEILRNASQIVSSV
notes: Vps1, S. cerevisiae, lacking the lysine-rich 3K motif (residues 591-593) of Insert B; Same tags as m1; source: bacterially expressed, T7 Express (NEB), purified (Strep-trap HP or Streptactin XT)

How the values were obtained:
[1] = target: Vps1(ΔInsB) (S. cerevisiae) (UniProt P21576); experiment: SEC-MALS; purified Vps1 (~0.32 mg/ml) on Superose 6 10/300 GL, 20 mM HEPES pH 7.5, 150 mM NaCl, room temperature; self-association in solution
[2] = target: the molecule itself; experiment: as above

Molecule | stoichiometry N [2] | further results
Vps1(ΔInsB) (from UniProt P21576 1-535; P21576 613-704) (enzyme) |  | stoichiometry N [1]: 2
B1 |  | binding result [2]: binds
B2 | 2 | 
B3 | 4 | 
B4 | 4 | 
